{
  "source": "the DeepSol protein solubility set",
  "data": [
    {"test": "soluble on expression in E. coli; label from the status in PepcDB or PDB records", "values": [
      {"sequence": "MSIQLNGINCFYGAHQALFDITLDCPEGETLVLLGPSGAGKSSLLRVLNLLEMPRSGTLTIAGNHFDFTKTPSDKAIRELRQNVGMVFQQYNLWPHLTVVQNLIEAPCRVLGLTKDQALARAEKLLERLRLKPYSDRYPLHLSGGQQQRVAIARALMMEPQVLLFDEPTAALDPEITAQIVSIIHELAETNITQVIVTHEVEVARKTASRVIYMENGHIVEHGDAGCFAHPQTEAFKNYLSH", "soluble on expression in E. coli": "not soluble"},
      {"sequence": "MSLNPFGNALIPDMIADASIQEINGVFYCYATTDGYGQGLKTSGPPVVWKSKDFVHWSFDGTYFPSAAKEKYWAPSKAIFANGKYYIYPTINGYMYPAVADKPEGPFKLARGKDEFYKPFTPSTLLQSKNPGGIDAEIFVDDDGQAYVFWGRRHVAKLNEDMITVDSVVQVISTPRKEYSEGPIFFKRKGIYYYLYTIGGDEKYQYAYVMSRVSPMGPFEAPEQDIISTTNYERGIFGPGHGCVFHPEGTDNYYFAYLEFGRRSTNRQTYVNQLKFNEDGTIRPVELTMDGVGALKKVKSDKKMKIDTVYASSIEVPLKIEPMKDPTCLRTEYFVPSFAVDGANGSRWMAAAEDSINPWIVADLGTVKKVRRSEIYFVRPTAGHAYVIEASMDGKVWQEFAVHQDRKMCSPHTDVLNKRFRYLRIKILKGVPGIWEWNIYEGHHHHHH", "soluble on expression in E. coli": "not soluble"},
      {"sequence": "MGSDKIHHHHHHMADNTDNLNSFRALALQVTCHAVNQATDRHEARSLMQNSINRLAQQIAASIAFIGFDCRLIVLPEYFLTGFPMGDSLAGWAEKACIEMAGAEYEALGKIAQKHKIFLAGNAYEVDPNFPGLYFQTCFILDPSGSIVLRYRRLNSLFAPTPHDVWDKYLDCYGLEGVFPVAKTAIGNLAALASEEILYPEVARCLAMRGAEIFVHSTSEVYNKNLTPKDAAKITRAVENMAYVVSANTAGIANIAIPIASADGGSKIIDHRGIVLAETGAGESMAAFAEIDLGALRRDRRRPGLHNLLARQRFELYAESYHQSHFYPANTMLEGEIDRKHFLQTQQATIDRLAQLGII", "soluble on expression in E. coli": "not soluble"},
      {"sequence": "MGSDKIHHHHHHEIFSEITTDNYYQNSNNIYAALVNNYAKAFSTGWSDARYFLQEVTADQLMIPTRGKHGYNGGEYVRLHEHKWTVEENFVYNGWAAPFQGIALCNNTLSDFENLDFSTFKLTEETKNEYIAELRALRVWNYMFLIDFFRHVPIVTDIEEVKAQSTPLEVFNFMESELLAILPDLPKNRGVSRFDQAGVASILVRLYLNAEKWIGISKYDECEQMAQAILDGKYGEYSIDPDYRGPFRSGINGYRSKENIMEFAIKKNYFEASWLYNMWMHYQDRYSLDNDWQGWNGGNLAPSRDLYGNLYQDKLGMPFEKFPDGDIRKKAFRVISNDGDYEGFFLMGTQYKFDYEKGYGFTDEVITGTEEYNGKPLVYVDQVGRFSEGETGLAKGSHVIYGEENTGYRLIKFPWLPQSKDLFQMNSIPEIRLAEIYYSLAECKYRSGDKIGAARLLDVVRKRYYKAEDWSKFSYESNISKLTDDEFVDELGREFIGERHRRIDLIRWNRFSEGAWWDKTPDATNQDVFPIPYRALNANPLLKQTTAGF", "soluble on expression in E. coli": "not soluble"},
      {"sequence": "MTGHRPACPPIPADVYTRLERRIGRCHLNQRLGIEHDFEARIFGQGRTFFHIENWNRLHTLLRRLLKLSLLYRPGQRAARRIEIRRNEFTLPHLPEAFEGYTLLHISDLHLDMAGDLPDALIRAIGQAGHYDACVLTGDFRARTFGPYRGAIDGLAQVRTHIDKPVFAILGNHDTIRMTPEIEDLGIGVLLNEAREIRQDGASIFLAGVDDPHYYRADNIEKAADPIPQGAVSILLSHSPELYRHAAYADFDIMLCGHTHGGQICLPGGIALTLNARCPRAFGRGYWRYHRMQGYTSAGSGVSILDIRLNCPPEITLHRLSRHRLSKGGCECGGGKGLEHHHHHH", "soluble on expression in E. coli": "soluble"},
      {"sequence": "MSYYHHHHHHLESTSLYKKALAYTLPQLPYAYDALEPHIDARTMEIHHTKHHQTYVDNANKALEGTEFADLPVEQLIQQLDRVPADKKGALRNNAGGHANHSMFWQIMGQGQGQNGANQPSGELLDAINSAFGSFDAFKQKFEDAAKTRFGSGWAWLVVKDGKLDVVSTANQDNPLMGEAIAGVSGTPILGVDVWEHAYYLNYQNRRPDYLAAFWNVVNWDEVSKRYAAAK", "soluble on expression in E. coli": "soluble"},
      {"sequence": "MGSDKIHHHHHHMTEAAEAGNRGFEDYYVNIGFTPDRLVSMLSLTGLSSVHSVVAFYDDRPAGFILNGIRMIGGKQVAWNGGTAVVPELRRQGIGQKLMAATVECYEEQGVELATLEAFRINERAIALYETFGYHIVDQLCFLQHIGALETSFRSKSVGENDYRVARGTAHDVRLLSFYQHTAPWRTQWFALRGGQSILVKDALNHTIGYALYERVFDGEGSLASIVLYQCEAAPGRDDADEIVREALDALFAPHDEPCKRTTFNMPRANERVVRILQEAGFTDAHTADGIPFEQVYMVRKGKDDR", "soluble on expression in E. coli": "not soluble"},
      {"sequence": "KGDDTYYIIFTSGTTGKPKGVQISHDNLLSFTNWMINAEAFATPHRPQMLAQPPYSFDLSVMYWAPTLALGGTLFALPKEITADFKQLFTTINQLPIGVWTSTPSFVDMAMLSDDFNAQQLPHLTHFYFDGEELTVKTAKKLRQRFPQARIVNAYGPTEATVALSALAVTDKML", "soluble on expression in E. coli": "not soluble"},
      {"sequence": "SAALAGVFVWDEERIQEEELQRSINEMKRLEEMSNMFQSSGVQHHPPEPKAQTEGNEDSEGKEQRWEMVMDKKHFKLWRRPITGTHLYQYRVFGTYTDVTPRQFFNVQLDTEYRKKWDALVIKLEVIERDVVSGSEVLHWVTHFPYPMYSRDYVYVRRYSVDQENNMMVLVSRAVEHPSVPESPEFVRVRSYESQMVIRPHKSFDENGFDYLLTYSDNPQTVFPRYCVSWMVSSGMPDFLEKLHMATLKAKNMEIKVKDYISAKPLEMSSEAKATSQSSERKNEGSCGPARIEYA", "soluble on expression in E. coli": "soluble"},
      {"sequence": "MIFGRSQRGKPPVEPVTLKILVAGGFGVGKTTLVGAVSEIRPLRTEELLTEAGRPVDDVSGVEGKHTTTVAMDFGRITLREDLVLYLFGTPGQERFWFMWDELSEGALGAVVLADTRRLEDCFAAIDYFERRSIPFVVGVNCFEGSARYPGETVRQALDLDEDVPLVMCDARDRESVKEVLIGVVQHAMTQAADRRRAVPTLEHHHHHH", "soluble on expression in E. coli": "not soluble"},
      {"sequence": "MSLNNHKHARLTRLGRALLVNRVMQQNWTMRQASQAAGVSLRTGYKWLARFRSEGLDGLLDRSSRPHRSPKACAPEQVEHFAQQRRQRLPLWRIAREAGRSLATVARYMERIGLSRLASLEPPAPVRRYERASPGELLHIDTKRLGRIRGVGHRITGDRAQNRNRGIGWDAVHLAIDDFSRVSFARILDDEGGDQCAEFLHQATAYYASLGVRIDRVMTDNGSGYVSRTFRAVCVELGIRHIRTRPYTPKTNGKAERLVQTCLREWAYARPYTSSAERQAALQPFIDRYNWCRPHSALGHQPPITRIPDVNNLLRIDSEGHHHHHH", "soluble on expression in E. coli": "not soluble"},
      {"sequence": "MADSTKAGLKKPAFTKVDQLRPGTSGHNVNVKIVSTKMVLQKGRADGPQARQLRISECIVGDETGVIVFTARNDQVDLMKEGSTVTLRNAKIDMYKGSMRLAVDKWGRVEVTEPASFKVKEDTNMSLIEYELVNVVE", "soluble on expression in E. coli": "soluble"},
      {"sequence": "SVADANGSSSSSFNFLIYGKTGWIGGLLGKLCEAQGITYTYGSGRLQDRQSIVADIESVKPSHVFNAAGVTGRPNVDWCESHKVETIRTNVAGTLTLADICREKGLVLINYATGCIFEYDSGHPLGSGIGFKEEDTPNFTGSFYSKTKAMVEELLKNYENVCTLRVRMPISSDLTNPRNFITKIARYEKVVDIPNSMTILDELLPISIEMAKRNLTGIYNFTNPGVVSHNEILEMYRDYIDPSFTWKNFTLEEQAKVIVAPRSNNELDATKLKTEFPELMSIKESLIKFVFEPNKKTEVKA", "soluble on expression in E. coli": "soluble"},
      {"sequence": "MSLTAAGRWRDVEMMAYKQDDAAPFRDVTRQLLFSDPRLACEWRYFEVAAGGYSTLEKHDHVHGVMIHRGKGQCLVGHHVSDVAVGDLVFIPPQTWHQFRANAGDVLGFLCLVNAERDREGHHHHHH", "soluble on expression in E. coli": "not soluble"},
      {"sequence": "MIEFNHVSKTFGDQQAVSDLNLHFSEGSFSVLIGTSGSGKSTTLKMINRLVEHDSGTIRFAGEEIRSLPVLELRRRMGYAIQSIGLFPHWTVAQNIATVPQLQKWSRARINDRIDELMALLGLESALRDRYPHQLSGGQQQRVGVARALAADPQVLLMDEPFGALDPVTRGALQQEMTRIHQLLGRTIVLVTHDIDEALRLADHLVLMDGGHVIQQGSPLSMLTSPENDFVQAFFGRSELGVRLLSLRSVGDYVRRHEQLSGDALVEEMTLRDALSMFVARRCDVLPVANQQGEPCGTLHFRDLLSETSPRETTV", "soluble on expression in E. coli": "not soluble"},
      {"sequence": "MRIWSSEHIFDHEWETVAQAAFRKYPNPLNRSITGIDVVKQTLEAGKILTERIIQSHFSIPSWATKLTGFSGTQYSHEYTVIDPTRKEFSLTTRNLNGSSFLRVDEKLTYTPAHEDPNKTILKQDVIVTITLPAFADYCEKTFLSIYSQNANKGRQGVEWVIDHLKKEYEAISTKVSSEVHEMSEKVLRSFGTTSSSSPKPSTPPPPST", "soluble on expression in E. coli": "not soluble"},
      {"sequence": "MEEGYRLKFIFIGNQNNNIKNKNFSNPHNILFDSKKDIILTQDLCEEFLNLNINKQDHAIELLKKELSPLLFEDSLSYLKEEFINEKLEFNISNLASRYTANNDVDTINNKIIEGISITNNFKYTNISYLKELKGYIENDILDKMKSKYAKNIYLNFKKIFSNLEQSVNNYLELEEEFEEKKKYLSEIYELIDEINIDPYIFLTEHNECNIYKISENEKLELQTYMSKIEKVLLKYQTYLKETCKECLFYPYLLVQGEAGIGKSHLLAHLSKKLRDENHIIYLFLGQFFTKNEDPWHQILNDLEVTNSVDNFLRSISNKAKETKKRAFIIIDALNEGEGKRLWGNYFQSFINHIKKYSNIALIFSIRTPFEDVILPKNAIQDNNIVVFQHEGFSKEENYNPIVSFCDFYGLELPKLPILNPEFNNPLFLKLMCEYCVNKFKEFDQTISVAELFTNVLKTVNINLSKEDKFDFDKNINVVQKVIKGLVELMNDSEFNQLNYEESYTVVNNIAKEYVQKSNRFLEALIDENILIKNTGYKGEMIIYFSYERMGDYFLSEYLLEKYRNVDKRDLVTKLQSDEKVTRYFQKEDDLSYNRGLINELFIKLANEFNIELFEVFPQFKNNYNMIYSFINSLVWRKDGSISKHTKCYISDNVIPYDAFRNNFLDVLLIKMPQKNHPLNIWALHKLLKQCNLGKRDFLWTQYISINNEKVFEIINWLFSNYKKLDEETAEKYMIFLTWIFSATNNKLRDLGTKSLVKLFKTFPTKIIGLLKLFENNNDPYIVERLYASVLGATLRIDICEIHIEIANYIYEEIFDKEMVYPHILMRDYARQTIEYISLSKDISNINLEKIRPPYKSNWYKKEYSNLNIDDYIKSLKNKLDSHLHFSIDKIKNSMTTEYGRGTGAYGDFGRYVFGYAVRNWVKGFKSDQDLSNIALMRIFEMGYDAKLHGEFDMWVNRYDNFNNSIERISKKYQWIAYYEILAKLVDKFPDVQYSGLWDDYIRDIDPTLLLLEIDK", "soluble on expression in E. coli": "not soluble"},
      {"sequence": "MHSGAYFFYAAPRAGTAGKQAMPIEGIDYRLVFASDVNPRDGLGLECWRGEQPLFEVFRDDVGRRFVVNLFASDVPLELLEAIIPTARRELGDFPRRSASRGVAKPG", "soluble on expression in E. coli": "soluble"},
      {"sequence": "SLSIDEIKQLIELIDESTLDEFELETKDSKILLKKHKTVVATAVQEAPIAVTPAQTAPVTPAAAPQVEASTAEDVNLEVITSPMVGTFYASASPEDANFVSVGSKVSAQSVVCIVEAMKLFNEITADIDGEIAEILVSSGELVEFGQPLFKVRKK", "soluble on expression in E. coli": "soluble"}
    ]}
  ]
}
